Results on two substances are retold here after publication PMC12742849 (Protein & Cell, 2025).

Assay [1] concerns the target enolase, native, from Francisella novicida (Francisella novicida). The assay is described as follows: cryo-EM structure.
The target of assay [2] is riboflavin biosynthesis protein D (RibD), native, from Francisella novicida (Francisella novicida). The assay is described as follows: cryo-EM structure.

In turn, “enolase, native, from Francisella novicida (enzyme)” had a stoichiometry N in assay [1] of 2.

In assay [2], “riboflavin biosynthesis protein D (RibD), native, from Francisella novicida (enzyme)” showed a stoichiometry N of 2.

For orientation: stoichiometry N means a count of units in the complex or per binding partner.
